Key:
[1] = confocal imaging, filopodia tip/shaft intensity ratio, COS-7; details: glycan lost; control: mEGFP-EAAT2 wild type
[2] = confocal imaging, filopodia shaft/cell body ratio, Lck-mCherry normalised; details: glycan lost; control: mEGFP-EAAT2 wild type

B1: EAAT2: EAAT2ΔG (protein)
parent chain: MASTEGANNMPKQVEVRMHDSHLSSDEPKHRNLGMRMCDKLGKNLLLSLTVFGVILGAVCGGLLRLASPIHPDVVMLIAFPGDILMRMLKMLILPLIISSLITGLSGLDAKASGRLGTRAMVYYMSTTIIAAVLGVILVLAIHPGNPKLKKQLGPGKKNDEVSSLDAFLDLIRNLFPENLVQACFQQIQTVTKKVLVAPPSEEANTTKAVISMLNETMNEAPEETKIVIKKGLEFKDGMNVLGLIGFFIAFGIAMGKMGEQAKLMVEFFNILNEIVMKLVIMIMWYSPLGIACLICGKIIAIKDLEVVARQLGMYMITVIVGLIIHGGIFLPLIYFVVTRKNPFSFFAGIFQAWITALGTASSAGTLPVTFRCLEDNLGIDKRVTRFVLPVGATINMDGTALYEAVAAIFIAQMNGVILDGGQIVTVSLTATLASIGAASIPSAGLVTMLLILTAVGLPTEDISLLVAVDWLLDRMRTSVNVVGDSFGAGIVYHLSKSELDTIDSQHRMQEDIEMTKTQSIYDDKNHRESNSNQCVYAAHNSVVIDECKVTLAANGKSADCSVEEEPWKREK
localisation_or_trafficking, other: tip/shaft density ratio [1]: increases, 2.8 vs 1.5
localisation_or_trafficking, other: shaft/cell body density ratio [2]: decreases, 1.7 vs 2.7

Reference: paper PMC4357008
